{
  "source": "paper PMC2266796",
  "about": "“The Assembly of the Plasmodial PLP Synthase Complex Follows a Defined Course” (PLoS ONE, 2008)",
  "binders": {"B1": {"name": "PfPdx1 wild-type (Plasmodium falciparum Pdx1, Strep-tagged) (enzyme, P. falciparum, UniProt C6KT50 1-301, looked up)", "chain": "MENHKDDAVLLKHGWCEMLKGGVIMDVKSVEQAKIAEEAGAIGVMVLENIPSELRNKEGVARSVDPSKVEEIKKCVSINVLAKVRIGHFVEAQILEELKIDMIDESEVLTIADEMHHIDKHKFKTPFVCGCTNLGEALRRISEGASMIRTKGEAGTGNIIEAIKHIRTVNNEIKYLCSLSDSEVYHFAKKINAPIDLVLLTKKLKRLPVVNFAAGGVATPADAAMCMQLGMDGVFVGSGIFESENPRKMAASIVSAVSNFNNPKILLDVSMNLGKAMCGSTRVSDKWKNKNEEHTKFLTPQ", "notes": "molecular mass used for light scattering 34.2 kDa; also called PfPdx1 WT; plasmodial Pdx1; source: E. coli BLR (DE3); purified (Strep-Tactin) for light scattering; cell homogenate for co-purification; copies: 12"}, "B2": {"name": "PfPdx1 K151A (enzyme)", "chain": "B1 chain with K151A", "notes": "Pdx1 of Plasmodium falciparum in pASK-IBA3, point mutant; source: E. coli BLR (DE3); purified (Strep-Tactin) for light scattering; cell homogenate for co-purification"}, "B3": {"name": "PfPdx1 DKK (D26A/K83A/K151A) triple mutant (enzyme)", "chain": "B1 chain with D26A, K83A, K151A", "notes": "Pdx1 of Plasmodium falciparum in pASK-IBA3, triple mutant; Hexamer without additive; about half dodecamer with 10 mM glutamine; also called DKK to AAA (D26/K83/K151); DKK mutant; source: E. coli BLR (DE3); purified (Strep-Tactin) for light scattering; cell homogenate for co-purification"}, "B4": {"name": "PfPdx2HIS wild-type (Plasmodium falciparum Pdx2 with C-terminal 6x His-tag) (enzyme)", "chain": "MSEITIGVLSLQGDFEPHINHFIKLQIPSLNIIQVRNVHDLGLCDGLVIPGGESTTVRRCCAYENDTLYNALVHFIHVLKKPIWGTCAGCILLSKNVENIKLYSNFGNKFSFGGLDITICRNFYGSQNDSFICSLNIISDSSAFKKDLTAACIRAPYIREILSDEVKVLATFSHESYGPNIIAAVEQNNCLGTVFHPELLPHTAFQQYFYEKVKNYKYS"}},
  "key": {"[1]": {"molecular_target": "the molecule itself", "assay": "SEC-MALS; 100 ug purified Strep-tagged PfPdx1 on Superdex 200 10/30 with static light scattering (miniDAWN Tristar); 100 mM Tris-HCl pH 8.0, 150 mM NaCl, no amino acid added"}, "[2]": {"molecular_target": "the molecule itself", "assay": "SEC-MALS; as a2, with 10 mM glutamine in the elution buffer"}, "PfPdx1 D26A": {"molecular_target": "PfPdx1 D26A (P. falciparum, UniProt C6KT50 1-301, D26A)", "assay": "cell-based or functional assay"}, "[3]": {"molecular_target": "B3", "assay": "cell-based or functional assay"}, "PfPdx1 K83A": {"molecular_target": "PfPdx1 K83A (P. falciparum, UniProt C6KT50 1-301, K83A)", "assay": "cell-based or functional assay"}, "PfPdx1 K151A": {"molecular_target": "B2", "assay": "cell-based or functional assay"}, "[4]": {"molecular_target": "PfPdx1 ERR (E136A/R139A/R140A) triple mutant (P. falciparum, UniProt C6KT50 1-301, E136 to alanine | R139 to alanine | R140 to alanine)", "assay": "cell-based or functional assay"}},
  "note": "Substitutions are numbered along the chain they refer to. In names and notes the source's numbering stands.",
  "data": [
    {"binder": "B1", "values": [
      {"measurement": "stoichiometry N", "setting": "[1]", "value": 12}
    ]},
    {"binder": "B2", "values": [
      {"measurement": "stoichiometry N", "setting": "[1]", "value": 6}
    ]},
    {"binder": "B3", "values": [
      {"measurement": "stoichiometry N", "setting": "[2]", "value": 12},
      {"measurement": "stoichiometry N", "setting": "[1]", "value": 6}
    ]},
    {"binder": "B4", "values": [
      {"measurement": "glutaminase activity of PfPdx2 mixed equimolar with the PfPdx1 variant", "setting": "PfPdx1 D26A", "value": 285, "unit": "mU mg^−1"},
      {"measurement": "glutaminase activity of PfPdx2 mixed equimolar with the PfPdx1 variant", "setting": "[3]", "value": 274, "unit": "mU mg^−1"},
      {"measurement": "glutaminase activity of PfPdx2 mixed equimolar with the PfPdx1 variant", "setting": "PfPdx1 K83A", "value": 291, "unit": "mU mg^−1"},
      {"measurement": "glutaminase activity of PfPdx2 mixed equimolar with the PfPdx1 variant", "setting": "PfPdx1 K151A", "value": 251, "unit": "mU mg^−1"},
      {"measurement": "glutaminase activity of PfPdx2 mixed equimolar with the PfPdx1 variant", "setting": "[4]", "value": 286, "unit": "mU mg^−1"}
    ]}
  ]
}
